Measurements as given in article PMC2814788.

Biological target: C-terminally myc-tagged Sec8 (Sec8-myc) (S. cerevisiae) (UniProt P32855)
Assay: co-IP

Chain of UniProt P32855 (P32855 whole entry): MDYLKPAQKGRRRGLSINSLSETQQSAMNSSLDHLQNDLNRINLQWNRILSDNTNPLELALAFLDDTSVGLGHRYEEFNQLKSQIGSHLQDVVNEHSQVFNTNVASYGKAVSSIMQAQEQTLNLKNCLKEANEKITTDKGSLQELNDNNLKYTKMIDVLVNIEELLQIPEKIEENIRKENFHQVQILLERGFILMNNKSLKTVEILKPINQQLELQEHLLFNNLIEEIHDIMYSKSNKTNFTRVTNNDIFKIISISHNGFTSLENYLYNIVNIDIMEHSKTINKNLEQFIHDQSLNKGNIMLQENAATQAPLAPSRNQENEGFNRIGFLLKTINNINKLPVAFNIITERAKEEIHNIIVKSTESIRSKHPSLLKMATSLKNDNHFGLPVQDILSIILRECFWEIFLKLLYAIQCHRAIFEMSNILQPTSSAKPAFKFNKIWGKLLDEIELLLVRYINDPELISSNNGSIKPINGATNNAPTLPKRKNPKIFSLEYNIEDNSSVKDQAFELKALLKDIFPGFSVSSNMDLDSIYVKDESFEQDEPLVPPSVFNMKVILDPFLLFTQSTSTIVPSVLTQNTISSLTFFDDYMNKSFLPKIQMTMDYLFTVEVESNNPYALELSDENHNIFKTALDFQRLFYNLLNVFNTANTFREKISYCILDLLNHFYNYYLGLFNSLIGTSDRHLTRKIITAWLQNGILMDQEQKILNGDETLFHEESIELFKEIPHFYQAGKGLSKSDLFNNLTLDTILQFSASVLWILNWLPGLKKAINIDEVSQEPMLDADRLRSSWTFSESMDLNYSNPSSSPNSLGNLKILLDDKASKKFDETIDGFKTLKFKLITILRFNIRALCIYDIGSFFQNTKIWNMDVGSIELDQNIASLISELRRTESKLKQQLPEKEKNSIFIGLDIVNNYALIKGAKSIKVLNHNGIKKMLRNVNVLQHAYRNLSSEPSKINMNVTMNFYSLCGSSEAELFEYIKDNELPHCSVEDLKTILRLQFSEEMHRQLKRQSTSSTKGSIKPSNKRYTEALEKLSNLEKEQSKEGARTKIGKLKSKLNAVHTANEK

“Exo70-E557K (gain-of-function mutant, in yeast lysate) (from UniProt P19658 63-623) (natural protein)” was tested, and the reduction of coprecipitated Exo70 against wild type was 25%.
